According to US20100113575A1:

Experiments:
[1] = molecular target: autoprocessed, secreted PCSK9-152FLAG-V5/His (human) (UniProt Q8NBP7); test: TR-FRET on cell media, 50,000 cells per well
LDLR = LDLR (UniProt P01130); test: cell-based or functional assay

Eu+3-labeled anti-FLAG M1 antibody
window of the TR-FRET ratio against PCSK9-152FLAG-V5/His-S386A [1]: 3 fold

purified nonprocessed D186A PCSK9 (from UniProt Q8NBP7 31-692) (enzyme)
activity in PCSK9-dependent LDL uptake against processed PCSK9 (LDLR): 20 fold

purified processed D186A PCSK9 (with retained pro domain) (from UniProt A8T644 31-152; Q8NBP7 153-692) (enzyme)
EC50, inhibition of diI-LDL uptake in HEK293 cells (LDLR): 189 nM
fold decrease in potency in the PCSK9-dependent LDL-uptake assay against WT PCSK9 (LDLR): 4 fold
